Data from the supplement of paper PMC10724198.

Columns and labels:
[1] = tested on: Saccharomyces cerevisiae; assay: protein stability index of tFT-peptide fusion in wild type (PSI (0-1 scale)); higher = more stable (slower turnover); settings: genetic background: wild type
Method: (§1)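 MPS profiling in S. cerevisiae of two library types built from selected 12-aa C-degron peptides (IN1, IN2, LN1, LN3, VN2, R1-R5, W1-W3, Atg1 and Rpa12 C-termini): saturation mutagenesis libraries and C-terminal +1 capping libraries (13 aa). Each peptide is fused to the C-terminus of a sfGFP-mCherry timer, after a GGGS linker. Cells are FACS-sorted into 8 mCherry/sfGFP bins and sequenced. PSI runs from 0 (unstable) to 1 (stable), measured once in wild type and in the das1Δ or doa10Δ background.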

[2] = tested on: Saccharomyces cerevisiae; assay: protein stability index of tFT-peptide fusion in deletion strain of DAS1 (PSI (0-1 scale)); higher = more stable (slower turnover)
Method: as §1
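Wherever protein stability index of tFT-peptide fusion in deletion strain of DAS1 is given: PSI is a weighted mean of each variant's read distribution over the sorted stability bins, computed only for variants having over 10 reads in total.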
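Wherever protein stability index of tFT-peptide fusion in wild type is given: PSI derived as read-weighted mean over the 8 sorting bins, only variants exceeding 10 total reads kept, mCherry placed adjacent to the peptide and sfGFP distal.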

| Sequence | protein stability index [1] | protein stability index [2] |
| --- | --- | --- |
| LVVYASCVACIN | 0.023 | 0.0371 |
| LVVYFSCVACIN | 0.0194 | 0.0148 |
| LVVYLHCVACIN | 0.0158 | 0.0327 |
| LVVYLRCVACIN | 0.0199 | 0.0318 |
| LVVYLSCCACIN | 0.0859 | 0.138 |
| LVVYLSCIACIN | 0.0141 | 0.0218 |
| LVVYLSCLACIN | 0.0182 | 0.0537 |
| LVVYLSCVACIND | 0.0204 | 0.0356 |
| LVVYLSCVACING | 0.0204 | 0.0326 |
| LVVYLSCVACINN | 0.0233 | 0.037 |
| LVVYLSCVACIR | 0.0163 | 0.0325 |
| LVVYLSCVACIY | 0.0122 | 0.0359 |
| LVVYLSCVARIN | 0.0258 | 0.0375 |
| LVVYLSCVATIN | 0.0174 | 0.0278 |
| LVVYLSCVAVIN | 0.0169 | 0.0276 |
| LVVYLSCVCCIN | 0.461 | 0.415 |
| LVVYLSCVVCIN | 0.0309 | 0.0986 |
| LVVYLSKVACIN | 0.0955 | 0.38 |
| LVVYLSTVACIN | 0.0656 | 0.161 |
| LVVYLSWVACIN | 0.0137 | 0.0348 |
| LVVYPSCVACIN | 0.248 | 0.337 |
| LVVYVSCVACIN | 0.0192 | 0.0341 |
| LVVYWSCVACIN | 0.0151 | 0.0704 |

| Sequence | protein stability index [1] | protein stability index [2] |
| --- | --- | --- |
| NLIQPLPVQFLN | 0.0875 | 0.582 |
| NRWRVGLWRGAS | 0.454 | 0.685 |
| PDHRNHLIKLLN | 0.0948 | 0.589 |
| PDKANHLIKLLN | 0.183 | 0.594 |
| PDKGNHLIKLLN | 0.23 | 0.635 |
| PDKINHLIKLLN | 0.135 | 0.578 |
| PDKRDHLIKLLN | 0.105 | 0.599 |
| PDKRMHLIKLLN | 0.0774 | 0.592 |
| PDKRNALIKLLN | 0.142 | 0.629 |
| PDKRNDLIKLLN | 0.184 | 0.626 |
| PDKRNHLAKLLN | 0.0907 | 0.547 |
| PDKRNHLGKLLN | 0.428 | 0.593 |
| PDKRNHLIKGLN | 0.546 | 0.619 |
| PDKRNHLIKLGN | 0.617 | 0.605 |
| PDKRNHLIKLLA | 0.114 | 0.57 |
| PDKRNHLIKLLC | 0.0722 | 0.577 |
| PDKRNHLIKLLF | 0.269 | 0.576 |
| PDKRNHLIKLLNQ | 0.316 | 0.667 |
| PDKRNHLIKLLNR | 0.652 | 0.668 |
| PDKRNHLIKLLNV | 0.203 | 0.659 |
| PDKRNHLIKLLS | 0.102 | 0.653 |
| PDKRNHLTKLLN | 0.17 | 0.584 |
| PDKRNHSIKLLN | 0.174 | 0.631 |

| Sequence | protein stability index [1] | protein stability index [2] |
| --- | --- | --- |
| PDKRNHTIKLLN | 0.176 | 0.582 |
| PDKRNLLIKLLN | 0.124 | 0.608 |
| PDKRNNLIKLLN | 0.155 | 0.589 |
| PDKRNSLIKLLN | 0.163 | 0.723 |
| PDKRNTLIKLLN | 0.108 | 0.599 |
| PDKVNHLIKLLN | 0.129 | 0.658 |
| PLKRNHLIKLLN | 0.135 | 0.622 |
| PPLAASFWRVVG | 0.165 | 0.673 |
| PQKRNHLIKLLN | 0.113 | 0.597 |
| PSCAASFWRVVG | 0.154 | 0.691 |
| PSEAASFWRVVG | 0.175 | 0.702 |
| PSLAANFWRVVG | 0.159 | 0.689 |
| PSLAASAWRVVG | 0.155 | 0.666 |
| PSLAASFWEVVG | 0.697 | 0.712 |
| PSLAASFWRCVG | 0.144 | 0.674 |
| PSLAASFWRVSG | 0.205 | 0.684 |
| PSLAASFWRVVGE | 0.672 | 0.668 |
| PSLAASFWRVVGG | 0.651 | 0.682 |
| PSLAASFWRVVGM | 0.679 | 0.703 |
| PSLAASFWRVYG | 0.174 | 0.691 |
| PSLAASHWRVVG | 0.158 | 0.692 |
| PSLAASNWRVVG | 0.22 | 0.692 |
| PSLAASQWRVVG | 0.184 | 0.668 |

| Sequence | protein stability index [1] | protein stability index [2] |
| --- | --- | --- |
| PSLEASFWRVVG | 0.121 | 0.673 |
| PSLKASFWRVVG | 0.147 | 0.678 |
| PSLMASFWRVVG | 0.131 | 0.707 |
| PSLWASFWRVVG | 0.103 | 0.697 |
| PWLAASFWRVVG | 0.0915 | 0.717 |
| QRWRVGLWRGAS | 0.345 | 0.683 |
| RKHKKGQKQKIN | 0.121 | 0.574 |
| RLAQPLPVQFLN | 0.0466 | 0.566 |
| RLFQPLPVQFLN | 0.034 | 0.658 |
| RLIGPLPVQFLN | 0.0842 | 0.598 |
| RLIQCLPVQFLN | 0.0457 | 0.571 |
| RLIQELPVQFLN | 0.061 | 0.616 |
| RLIQLLPVQFLN | 0.0564 | 0.635 |
| RLIQPEPVQFLN | 0.215 | 0.61 |
| RLIQPLNVQFLN | 0.0919 | 0.575 |
| RLIQPLPGQFLN | 0.282 | 0.612 |
| RLIQPLPVMFLN | 0.0639 | 0.564 |
| RLIQPLPVQELN | 0.525 | 0.703 |
| RLIQPLPVQFIN | 0.0372 | 0.583 |
| RLIQPLPVQFLNF | 0.462 | 0.659 |
